Laboratory results as given in the supplement of paper PMC10567573.
± gives the standard deviation.

Assay: protein stability index of a GFP-peptide fusion (GPS, HEK-293T) (PSI 1-6); higher = more stable
[1] = treatment: DMSO, c terminus: a fixed tail appended
[2] = treatment: MLN4924 1 uM, 8 h, c terminus: a fixed tail appended
[3] = treatment: DMSO, c terminus: native
[4] = treatment: MLN4924 1 uM, 8 h, c terminus: native
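Note: 24-mer peptide tiles fused after GFP, lentivirally expressed, FACS-sorted into six equal bins by GFP/DsRed ratio, decoded by Illumina sequencing, PSI is the read-weighted mean bin number.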

| Sequence | protein stability index [1] | protein stability index [2] | protein stability index [3] | protein stability index [4] |
| --- | --- | --- | --- | --- |
| PLPGKAFLRQLPFRGDDGIFDDNF [SNX3] | 3.47 ± 0.23 | 3.41 ± 0.47 |  |  |
| TLKQQHQQAVEQIAKAEETHSSLS [CCDC89] | 5.07 ± 0.21 | 5.09 ± 0.14 |  |  |
| PDRASGPEGSLSQTMAGSSPNTPQ [FAM104A] | 5.3 ± 0.21 | 5.34 ± 0.2 |  |  |
| NIIAIAATNNLYIFQDKVNSDMH [PPP2R2C] |  |  | 2.36 ± 0.49 | 2.09 ± 0.2 |
| LTPADKAEHMKRQRHPRLRPQSAQ [AUP1] | 4.36 ± 0.16 | 4.57 ± 0.28 |  |  |
| KKNSSPPLSLYGQLLWREFFYTAA [CRY1] | 2.42 ± 0.46 | 2.67 ± 0.63 |  |  |
| EDDWPRDVSLPRGAFPPRGPRPVQ [CDK4] | 4.57 ± 0.18 | 4.6 ± 0.24 |  |  |
| MQDYVRTGTYQRAILQNHTDFKDK [CARM1] | 3.92 ± 0.32 | 4.18 ± 0.29 |  |  |
| QEVTEPAVVAVDRQAIFPDTWTLT [PXN] | 4.06 ± 0.23 | 3.8 ± 0.36 |  |  |
| RERMELLEEAKKMEMAKFRYILPV [RIPK4] | 2.48 ± 0.22 | 2.84 ± 0.4 |  |  |
| KSQTACLPFVLAAAVSRKKKRRMG [EHMT1] | 3.38 ± 0.31 | 3.61 ± 0.3 |  |  |
| YKGLFEVNPWKREVKLLLSSETPI [APMAP] | 2.71 ± 0.3 | 2.14 ± 0.18 |  |  |
| LHFIATNYLIFSQKPEFQDLSVEE [RHOBTB3] | 2.5 ± 0.77 | 2.15 ± 0.38 |  |  |
| SENLEEETENIIAANHWVLPAAEF [TRIP13] | 4.8 ± 0.26 | 4.61 ± 0.17 |  |  |
| LTEQYTVTGLMEATQMMVDIDGDV [RHOBTB2] | 4.66 ± 0.33 | 4.63 ± 0.29 |  |  |
| VFLVDICLLTYGMTSSSAYYYTKV [PKD2L1] | 2.98 ± 0.2 | 2.84 ± 0.58 |  |  |
| MGTRRKHLGCAVYQDMIYAVGGRD [KLHL20] | 2.33 ± 0.27 | 2.29 ± 0.56 |  |  |
| DAELATRAIPELTKLLNDEDQVVV [CTNNB1] | 4.79 ± 0.22 | 4.8 ± 0.11 |  |  |
| NETRRKHETRLVEVDSGRQIEYEY [LMNB1] | 4.54 ± 0.14 | 4.57 ± 0.23 |  |  |
| VGNYRLKEYEKALKYVRGLLQTEP [FIS1] | 2.19 ± 0.22 | 2.5 ± 0.32 |  |  |
| TQIKGLKNKPKKMGHIKPDLIDVD [PHTF1] | 4.42 ± 0.16 | 4.34 ± 0.26 |  |  |
| EALAVLEPYARLPPHKHVARPTEV [TRIB3] | 2.72 ± 0.36 | 2.77 ± 0.2 |  |  |

| Sequence | protein stability index [1] | protein stability index [2] | protein stability index [3] | protein stability index [4] |
| --- | --- | --- | --- | --- |
| RLLLAGAEVQAKLENAEVLELTVR [HES6] | 2.37 ± 0.38 | 2.63 ± 0.49 |  |  |
| STLPSLREEEEQVRAHAPRGNAPP [KCNG1] | 4.43 ± 0.23 | 4.91 ± 0.35 |  |  |
| TAGLLREQVAQLKQKVMTHVSNGC [JUNB] | 3.25 ± 0.2 | 3.25 ± 0.32 |  |  |
| GEREPFAETDEHTGANTKKPEDTA [FAM9B] | 5.46 ± 0.22 | 5.54 ± 0.52 |  |  |
| SRNRDPGRLILSTIRLRPRQVLCE [PWWP2B] | 2.68 ± 0.18 | 3.04 ± 0.25 |  |  |
| GLELALACDIRVAASSAKMGLVET [AUH] | 2.37 ± 0.77 | 2.34 ± 0.18 |  |  |
| NRNQGLNRLMLAVRDMMANFHLND [TCF25] | 2.1 ± 0.16 | 2.24 ± 0.37 |  |  |
| SHGANVNHTTVTNSTPLRAACFDG [FEM1B] | 4.02 ± 0.14 | 4.25 ± 0.086 |  |  |
| AYHVPNRTLASGRLLSYRGERVAA [DNAAF3] | 3.31 ± 0.23 | 3.4 ± 0.14 |  |  |
| INTLNGLKLQTKTIKVSYARPSSA [ELAVL3] | 2.38 ± 0.2 | 2.39 ± 0.26 |  |  |
| LEERRVKEVVKKHSQFIGYPITLY [HSP90AB1] | 2.48 ± 0.068 |  |  |  |
| AVPAAATRTTSFKGTSPSSKYVKL [KCTD10] | 3.87 ± 0.2 | 3.99 ± 0.28 |  |  |
| AWLTEEEPEPAEVTSTSQSPHSPD [DDIT3] | 5.59 ± 0.23 | 5.63 ± 0.21 |  |  |
| HYRASEEEPEYGEEIKGYPGVQAP [CHGB] | 4.64 ± 0.23 | 5.04 ± 0.36 |  |  |
| LGSDDEEQEDPADYCKGGYHPVKI [SRPK2] | 4.81 ± 0.31 | 4.67 ± 0.31 |  |  |
| ELHPESGEEAVTLVEDMQRELGRL [ZNF263] | 4.88 ± 0.41 | 5.13 ± 0.26 |  |  |
| NQAGYFMLPTVITDIKDESCCMTE [ALDH8A1] | 3.5 ± 0.13 | 3.71 ± 0.43 |  |  |
| SGLLEELNAEAGHLDPGFLASDKT [C18orf25] | 4.96 ± 0.18 | 4.76 ± 0.12 |  |  |
| GPDVLETDGLQEVPLCSCRMETPK [EHMT1] | 4.16 ± 0.43 | 4.29 ± 0.29 |  |  |
| VLHIVASLIILHLSGATKKGTEKQ [NETO1] | 2.78 ± 0.57 | 2.9 ± 0.65 |  |  |
| PDLESGSESGADTISVNQTRVNLS [DLC1] | 5.12 ± 0.26 | 5.16 ± 0.2 |  |  |
| ECRNPQELESIRQDRDALHMEGLI [FEM1B] | 4.3 ± 0.16 | 4.31 ± 0.17 |  |  |

| Sequence | protein stability index [1] | protein stability index [2] | protein stability index [3] | protein stability index [4] |
| --- | --- | --- | --- | --- |
| LGFKANIMNEKCVVENAEKILGYL [SLC6A17] | 2.43 ± 0.23 | 2.26 ± 0.14 |  |  |
| SSVCVQGRCIHAGCDRIIGSKKKF [ADAMTS4] | 3.57 ± 0.26 | 3.22 ± 0.38 |  |  |
| MPYNFCLPSLSCRTSCSSRPCVPP [KRT33B] | 2.34 ± 0.41 | 2.18 ± 0.45 |  |  |
| RAALKLEPSNKTIHAELSKLVKKH [FKBP8] | 3.71 ± 0.19 | 3.85 ± 0.12 |  |  |
| CLLICAEMYQVSRLQHICELFIIT [RHOBTB3] | 3.06 ± 0.38 | 3 ± 0.27 |  |  |
| LTAHLLPPRQALGSLCSPWAAPRV [YPEL3] | 2.56 ± 0.36 | 2.45 ± 0.36 |  |  |
| FAELSVDMEKILEIIRVILKLYEQ [CCNC] | 2.2 ± 0.12 | 2.69 ± 0.25 |  |  |
| TTYLKTIEVFDPDANTWRLYGGMN [KLHL20] | 2.34 ± 0.23 | 2.26 ± 0.042 |  |  |
| GSGLSSRFEEPKGPPARQEDSKEL [CBY2] | 5.35 ± 0.27 | 5.5 ± 0.25 |  |  |
| TFRQYCGAACTCHVRNPLSACSIM [RNF208] | 2.21 ± 0.4 | 2.2 ± 0.27 |  |  |
| TFQEPLYPALRLWEGAISIPRLP [TRIM14] |  |  | 2.65 ± 0.62 | 2.67 ± 0.66 |
| STDTAVTNEWEKRLSTSPVRLAAR [EPB41L3] | 4.3 ± 0.26 | 4.44 ± 0.18 |  |  |
| SILKAMGKTKKDYQEASNLEQFVT [NECAB1] | 2.89 ± 0.41 | 3.04 ± 0.33 |  |  |
| SVRRSESWARPRPDEERPLRRPRP [RASAL3] | 4.92 ± 0.096 | 4.68 ± 0.29 |  |  |
| DMVSNIELPTRIHEEVYFEPSSSK [MIA2] | 3.68 ± 0.2 | 3.88 ± 0.39 |  |  |
| AAEGEGSPPAVAAVAGPPAAAEVG [ANKRD17] | 5.63 ± 0.23 | 5.21 ± 0.43 |  |  |
| QVTAPGAPPLQAETPGSAVDYPLH [TNXB] | 4.45 ± 0.087 | 5.292 ± 0.007 |  |  |
| VSISIISSTSGGSGYGFRPSMVSG [KRT71] | 2.84 ± 0.52 | 3.01 ± 0.93 |  |  |
| MSIVIPLGVDTAETSYLEMAAGSE [KMT2E] | 2.76 ± 0.51 | 2.74 ± 0.39 |  |  |
| GNDTSPSEGTNLNAPNSLGVSALC [HNF4A] | 4.65 ± 0.18 | 4.76 ± 0.15 |  |  |
| DDEGDSYSDNPCSCSQSHCCSRYL [SPRY1] | 4.45 ± 0.21 | 4.57 ± 0.23 |  |  |
